Laboratory results published in patent publication US10801046B2, “Methods and materials for biosynthesizing multifunctional, multivariate molecules via carbon chain modification” (INVISTA NORTH AMERICA S.A.R.L., priority 2016, dated 2020).

Legend:
Format in all cases: cell-based, Escherichia coli
[1] = In vivo carboxylate reductase screening, substrate consumption by LC-MS, heptanedioate; conditions: 541 enzymes screened in vivo
Procedure: To screen carboxylate reductases in vivo, […] T7- pUC expression vectors was co-transformed into T7 Express lysY/Iq with the phosphopantetheinyl transferase sfp from Bacillus subtilis on a T7-pCDF expression vector. Biological duplicates of the resulting strains were incubated in 0.5 mL of terrific broth containing either 1 g/L heptanedioate or 1 g/L monomethyl heptanedioate and supplemented with 0.4 mM IPTG in 96-well deep well plates. The plates were incubated for 30 h at 30° C. in a shaking incubator. The cells were then pelleted, and culture supernatants from the same strains in media containing either heptanedioate or monomethyl heptanedioate were combined. The combined supernatants were analyzed by LC-MS to determine the concentration of heptanedioate and monomethyl heptanedioate. Carboxylate reductase activity on heptanedioate or monomethyl heptanedioate was reflected by consumption of the respective substrate in the medium.

heptanedioyl-ACP = conditions: top 150 hits screened in vivo
[2] = tested on: heptanedioyl-ACP methyl ester

Molecule	substrate preference, heptanedioic acid to 7-oxoheptanoate [1]	activity toward heptanedioyl-ACP in vivo (heptanedioyl-ACP)	other results
SEQ ID NO: 196: Chromera velia CCMP2878 carboxylate reductase (protein, Chromera velia CCMP2878, Chromera velia CCMP2878 carboxylate reductase) MGAQCSAKNSLTYSIPYGEPQAEDESALYANPYMPELAGCDGLKSCWENFEVAVSSTGDKPAVGTREKQADGTLGKYVWKSWKEVAETVANLHAGLQSLDAFPLQSFPEESVQQTFKFLGVTGKNREEYLETMLAAYRAGVCLVPLYDTLGENTYEYCINQTGLKTVIVGDLKIASKLLHVAKKCECFKIIVCMDAVSDELKQEANASGVTIHSFEEVCEIGKQKPVDPTPAQSDMEINTICYTSGTTGNPKGVLVTHRALLTALSTSDELFKKEGFKIDFNDTHISYLPYAHVMERAVTEICVRRGMRIAFYSGDTTKIVDDIQLARPTVFFSVPRLYTRIYDRILSQAAAAGGIKKSLFDRALESKLTELRSTGNFTHKLWDAIVFSKIKDVLGGRVRFLVTGSAPMAKEVQEVLKVCFCCPMMEAFGMTETACCGTATAALDPTTGHVGGVVPGILLKVKGIPEMGYSPNDRGENGELMPRGELMVKGAAVFPGYFKEPEKTKEALDADGWLRTGDVCVINPNGSFKIIDRAKNIFKLAQGEYVAPEKIENIYIQCESVAQAFVTGYGTEKVLVCVVVPDEGYAKNWAKEKGLEGDAASLSALCATHGDLEAEVFKQIDAIGKARGLSGIEKAKAVRLYAEPFSVENDLLTATFKLKRHQANKTFKAQIDEMYAELNAKEKARGGS	preferred acting upon heptanedioic acid to form 7-oxoheptanoate	–	–
SEQ ID NO: 206: Phytophthora sojae (strain P6497) carboxylate reductase (protein, Phytophthora sojae (strain P6497), Phytophthora sojae (strain P6497) carboxylate reductase) MGAGSSSELPMSQIDFDSYTGKRYTVEVPNTRDATHGPAYEVADKEPVNEDEMTLYHNFLRGCSIEHGTRPLYGRRTVDADTGKAGAFEWLTYNEVKTRVERVASGLKAVGALERQDVVGVFSKNQLEWCLVAHACDRMSYVLVPLYDTLGPDAVPFIVNHTELRVLFCGKKQFDVVMDCVKDCPTLKTIVQFEPVTEQQIQQAAAKNLELRSLEELELLGEADPKRADPPKPTDVSTLCYTSGTTGDPKGVILLQRNYAYVVRQMCKRMQIFPSDVHCSYLPLAHVFERSVLGVLQAHGASAGFYQGDLLTLMDDLVELKPTVFVSVPRLFNRVYDKITQGVAAAGGLKKILFDRALAAKLAGLPEGHKTHALWDALVFSKVRLALGGRVRLIFSGSAPLSAEVKEFMKVVFCCDVAEGYGLSETAAAVTVGSVDMPMGPHVGCPLIYGQVQLEDVPEMGYTSRDKPRPRGEILVKGPMIFSGYYKEPEKTREAIDERGWFHTGDIGCWNADGTLSIIDRKKNIFKLAQGEYVAAEKIENIYAKSKYVAQIFAYGDSLQSCLVGIVVPDPETAEAWAQEKGLTGADASAAKVATNPEFQKAVLADMARVAKEAQLRGFEFVKSVHFHPEPFSLEQGLITPTFKLKRPQLKAHFQQQINMLYEGLK	preferred acting upon heptanedioic acid to form 7-oxoheptanoate	–	–
SEQ ID NO: 197: Cyberlindnera jadinii carboxylate reductase (protein, listed as Cyberlindnera jadinii) MNFNQPVNPQPVPGSRVEGYSEIFTNDPPVVLDPSMDTLSKMWNNAVANFANFDCMGVRKFHNTRKQQLDTFFTYDSYAEVDRKKHNISCGIIHLVTHHPKYRELLSIAGKPEFVVGILSPNRYEWMLVDLATRDFSLTNTALYPTLGQQSSQYILSVTESPIIFLTKDQIPKILEIKPELPLLNILVSLDDFDHDDHDLFVRAQSLGVSLVDFRAVEKIGERHPLPKDFNPPTTDTIYTISFTSGTTGNPKGVLIPHEMAACGIISCTMGLESPFELPKGAKRRQFGENVDQHGVQVTALCHLPLAHIYEREISNYALMSGFRLGFPSSTNPAMFFDDLKSIKPHYLASVPRVYNKLDALLKAKVKRGTPPHVVRKTFGLDHCRYLVSGSAPLGVETIKYLKQTLDIGFSVCYGSTETFAGFFFGDAFEDVITNSCGHPSASVQIRLRDVPEMGYHTNETPMRGELMVKGPQVFSEYFKNPKATADSFDKDGWFHTGDIVSMDSERRVYIIDRVKNFFKLQQGEFVTPERIENIYLAHSPLLTQLFVHGDSLQNFLVGVAGISLEYVQEMFKQDFGVAISQDEVLGLLQDPKYKAMLIKQLNHHVSGADLQGFEKIHNIHVDLEPLRLEDEVLTPTMKIKRENAKKKFAPILEKLYTEGSLVVKQKL	preferred acting upon heptanedioic acid to form 7-oxoheptanoate	–	–
SEQ ID NO: 194: Pseudomonas stutzeri (strain A1501) thioesterase (protein, Pseudomonas stutzeri (strain A1501), Pseudomonas stutzeri (strain A1501) thioesterase) MRRWLKCGALALLCWTQGALAGTVLVVGDSISAAFGLETSQGWVHLLQERLVEGDESWRVVNASISGDTTAGGLARLDPLLEEHTPEVVILELGGNDGLRGQSPVQLKQNLADMIDRSREAGAEVLLLGMRMPPNLGQRYTRAFADAFDSLAQEKSVAYVPFLLEGVGGVAGMMQADGIHPTAEAQSQLLETVWPALEPLL	–	displayed considerable activity toward heptanedioyl-ACP	–
SEQ ID NO: 195: Halobacteriovorax marinus thioesterase (protein, listed as Halobacteriovorax marinus, Halobacteriovorax marinus (strain ATCC BAA-682 / DSM 15412 / SJ), Halobacteriovorax marinus thioesterase) MKSPVFKKKYQVSISNVNINKRLGLFGLLGYLQDIATLHAEIAGFGLDEMISSNSFWVLVRQEIRMNKFPKWNDEIEIQTWSRTPQGMYAFREFEFFLNDEKVGSCSTAWMILSGDTRRIKKPDFPIEKINPRLDSLLDYCAERIKVLDNFELVNEIKVRISDLDLNMHVNNTKYTQWVLDSIPIELHKSAKLRNYQINFLKEAHLGDEIDIYRASSAKDESAHDTQFKGIRRSDQSTIFYVNIIADT	–	displayed considerable activity toward heptanedioyl-ACP	–
SEQ ID NO: 73: Thalassospira xiamenensis M-5 thioesterase (protein, Thalassospira xiamenensis M-5 = DSM 17429, Thalassospira xiamenensis M-5 thioesterase) MTIQWDEIAKPALPANCGWRGTYRVRYSEIGDNGLAMLPALADYMQDAAGWGARILKLAYDDTVDKGMAWVLARMVIHVRRYPGNGEDIIVETWPSGVARRVATRDFRLIDSSGDVIAVAQSFWVMFDLLERRAASWPDWIEERLPKPPGPKLIEPPFRPPFTTDPLPEIDSIKARPSDLDLYGHVNNVRLMQWVLGATGADSKPDFHPESIDIQFRTECRVQERVTVRQKDGFAAITRDGDGVDLVRAHVVPKNRTALA	–	displayed considerable activity toward heptanedioyl-ACP	impact on monomethyl heptanedioate production ([2]; 146 thioesterases screened): promising; activity toward heptanedioyl-ACP methyl ester in vivo ([2]; top 150 hits screened in vivo): showed activity toward heptanedioyl-ACP methyl ester
SEQ ID NO: 85: Ferrimonas balearica thioesterase (protein, Ferrimonas balearica (strain DSM 9799 / CCM 4581 / PAT), Ferrimonas balearica thioesterase) MVRRSLLILMLCLYQPGAWADQPSILILGDSLSASYGMSEAEGWVKKLQQNLPDAQIINASVSGETSGGGLRRLPGLLQQHQPDWVFVELGGNDGLRGFQPTITENNIEQLITLSKASGAQVLLSEVMVPPNYGRRYAERFQQIYHGLAKEHEVELVPFFMTEIATDPNLMQADGIHPNREAQGRIAAFLLPWFEQAIAE	–	displayed considerable activity toward heptanedioyl-ACP	–
SEQ ID NO: 205: Kuraishia capsulata CBS 1993 carboxylate reductase (protein, Kuraishia capsulata CBS 1993, Kuraishia capsulata CBS 1993 carboxylate reductase) MPSLPLPPYRAVFERAEDITRDALPFPPERNQRGIAVPGSVEPGYSAIYRSAATPDFLYDRVSPELDTYYRILKRSFEIFKDEDCVSERPQTGENSWSDKFVPRSYGEVYHDSLNFGSGLKYLLQKNEFRSGTEIPDKDYIVSIFSRNRAKWLVADISCTLFSLPNTALYDTLGPDTSTYILGLTKSPVVVAASDKISKLLDLKEADPAKLKNLIMLVAMDNLEPEVYSDLSRRAYKLNVKLYEWDQVTEAGILFPHEEVPPAPDSIYSLSFTSGTTGPPKGAILLHSGVAAGVAFTSATIDTPKQKAKLLSILPLAHIYERMTMALQLFRGGCLGFPHQPGPEHIVPNLRLFKPNLFSGVPRLFNKFEGVLKAATVHNPNASPAKRALAKRIIEWKMKQQCSKDGERGESILYDKLLNNKLRAALGFDNLYGVVTGSAPISAETIKFLKAALGVSFHQGYGLTETFAGVCVSAGLETDPGSCGVIGIATECRLKDTPELGYTSSDEGGPRGELLLRGSQVFPGYYKNEEETKKALDEDGWYHTGDIARIDSKCRIYVIDRVKNLFKLSQGEYVAPERIENIYLSSCTDFVSQIYVHGDSFSNYLVGIVGVDILGLSAFLKRKHPDLWRQVEGKTPEEILDIISSSRQLKSAILAQMNRNVSSAGLNGYEKLHNLKIGIEPLKVEDEVLTPTLKLKRNNALTKFNTDLKNLYEEGSLIKNEKL	preferred acting upon heptanedioic acid to form 7-oxoheptanoate	–	–
